Source: patent publication CN110790839A (JIANGSU HENGRUI MEDICINE CO; SHANGHAI HENGRUI …, dated 2020)

The binders below were run against T1, 人PD-1抗原(Cat.#10377H08H，Sino Biological) (human, UniProt Q15116 25-167) (assay: SPR, Biacore T200; IgG captured on Protein A chip, human PD-1 as analyte, 1:1 Langmuir fit).
T1 construct: Bought reagent, used as the analyte in Biacore; also called human PD-1; PD-1-His
T1 sequence (Q15116 25-167 limits assumed): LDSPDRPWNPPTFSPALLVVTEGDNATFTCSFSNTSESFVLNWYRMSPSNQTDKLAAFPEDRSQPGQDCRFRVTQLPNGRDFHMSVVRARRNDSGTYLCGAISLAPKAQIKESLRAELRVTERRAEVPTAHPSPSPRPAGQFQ

Binder	Kd [nM]
Ab05 (antibody, human IgG4 S228P, kappa, F234A L235A, V domains shown, also called 抗PD-1抗体Ab05) VH: EVQLVESGGGLVQPGGSLRLSCAASGFTFSSYMMSWVRQAPGKGLEWVATISGGGANTYFADSVKGRFTISRDNAKNSLYLQMNSLRAEDTAVYYCARTQIGFTNWGQGTTVTVSS VL: DIQMTQSPSSLSASVGDRVTITCLASQTIGTWLTWYQQKPGKAPKLLIYTATSLADGVPSRFSGSGSGTDFTLTISSLQPEDFATYYCQQAYSIPWTFGGGTKVEIKR	2.8
H005-1 (antibody, human IgG4 S228P, kappa, F234A L235A, V domains shown, Parent antibody from WO2015085847; also called 亲本抗体H005-1; H005-1抗体) VH: EVQLVESGGGLVQPGGSLRLSCAASGFTFSSYMMSWVRQAPGKGLEWVATISGGGANTYYPDSVKGRFTISRDNAKNSLYLQMNSLRAEDTAVYYCARQLYYFDYWGQGTTVTVSS VL: DIQMTQSPSSLSASVGDRVTITCLASQTIGTWLTWYQQKPGKAPKLLIYTATSLADGVPSRFSGSGSGTDFTLTISSLQPEDFATYYCQQVYSIPWTFGGGTKVEIKR	14.6
Ab01 (antibody, human IgG4 S228P, kappa, F234A L235A, V domains shown, also called 抗PD-1抗体Ab01) VH: EVQLVESGGGLVQPGGSLRLSCAASGFTFSSYMMSWVRQAPGKGLEWVATISGGGANTYFADSVKGRFTISRDNAKNSLYLQMNSLRAEDTAVYYCARTQIGFTNWGQGTTVTVSS VL: DIQMTQSPSSLSASVGDIVTITCLASQTIGTWLTWYQQKPGKAPKLLIYTATSLADGVPSRFSGSGSGTDFTLTISSLQPEDFATYYCQQVYSIPWTFGGGTKVEIKR	2.56
